Source: US20030082146A1

Tests used:
[1] = molecular target: anti-His single-chain antibody (scFv) artificial receptor displayed on 293.HissFv.rec cells; assay: cell-based or functional assay
[2] = molecular target: TSFLCmychis knobless fiber protein (adenovirus serotype 5 (Ad5); Moloney Murine Leukemia Virus) (UniProt P11818); assay: antibody-mediated virus capture on 9E10-coated plates, read out by GFP expression in 293.HissFv.rec cells (FACS)
[3] = molecular target: wild-type Ad5 fiber (adenovirus serotype 5 (Ad5)) (UniProt P11818); assay: as above

Substance | gene transfer (EGFP expression) by AdGFP-TSFLCmychis into 293.HissFv.rec cells in the presence of the anti-fiber knob antibody [1] [%] | percent functional virus bound (relative to binding to 1D6.14) [2] [%] | percent functional virus bound (relative to binding to 1D6.14) [3] [%]
TSFLCmychis knobless fiber protein (from UniProt P11818 1-403; P03385 514-553) | > 10 | – | –
anti-Myc MoAb 9E10 (antibody) | – | 2.3 | 0.2
